Experimental data taken from publication PMC4442024 (Nature, 2015).
Values joined by “and” are separate entries in the source; they are usually repeats but may differ in a detail not shown here. Identical values can stand only once.

B1: purified recombinant Flag-tagged SNAP29 (natural protein, human, UniProt O95721 1-258, looked up)
chain: MSAYPKSYNPFDDDGEDEGARPAPWRDARDLPDGPDAPADRQQYLRQEVLRRAEATAASTSRSLALMYESEKVGVASSEELARQRGVLERTEKMVDKMDQDLKISQKHINSIKSVFGGLVNYFKSKPVETPPEQNGTLTSQPNNRLKEAISTSKEQEAKYQASHPNLRKLDDTDPVPRGAGSAMSTDAYPKNPHLRAYHQKIDSNLDELSMGLGRLKDIALGMQTEIEEQDDILDRLTTKVDKLDVNIKSTERKVRQL

Columns and labels:
[1] = molecular target: purified recombinant ATG14 (UniProt Q6ZNE5); experiment: SEC-MALS
[2] = molecular target: T1, purified recombinant Flag–STX17 (human, UniProt P56962 1-302); experiment: SEC
T1 sequence (looked up): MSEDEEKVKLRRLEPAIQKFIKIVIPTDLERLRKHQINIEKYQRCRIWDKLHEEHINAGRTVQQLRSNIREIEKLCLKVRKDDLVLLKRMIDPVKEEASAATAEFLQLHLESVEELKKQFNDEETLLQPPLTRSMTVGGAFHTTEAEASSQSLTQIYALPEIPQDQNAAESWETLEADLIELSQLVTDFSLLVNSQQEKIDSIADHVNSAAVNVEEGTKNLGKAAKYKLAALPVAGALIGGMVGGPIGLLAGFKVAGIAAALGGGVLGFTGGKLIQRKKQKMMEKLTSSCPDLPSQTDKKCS

[3] = molecular target: B1; experiment: SEC

## purified recombinant ATG14 (from UniProt Q6ZNE5 1-492) (natural protein; other documents disagree on this pair)
[1]
  stoichiometry N: 2 and 4

## B1
[2]
  binding result: binds

B2: purified recombinant Flag-tagged VAMP8 (natural protein, human, UniProt Q9BV40 1-100, looked up)
chain: MEEASEGGGNDRVRNLQSEVEGVKNIMTQNVERILARGENLEHLRNKTEDLEATSEHFKTTSQKVARKFWWKNVKMIVLICVIVFIIILFIVLFATGAFS
[3]
  binding result: binds
